How the values were obtained:
Cav1.2 and Cav1.3 = conditions: cited from earlier work
Text: Despite the importance of dissecting the physiopathological roles of Cav1.2 and Cav1.3 channels in cardiac myocytes and neuronal cells, no selective pharmacological tool is currently available. […] Both distinct and complementary functions for Cav1.2 and Cav1.3 have been proposed in the central nervous system. For example, Cav1.2 is involved in hippocampal firing, spatial memory and LTP[52], as well as in the myelinisation process.

[1] = system: SAN myocytes from Wild-Type mice; assay: Spontaneous action potentials, perforated patch-clamp, SAN pacemaker myocytes; type: cell-based, mouse; conditions: nifedipine (in Table 1 only 3 µM together with Cas)
Experimental: (§1) Hearts from Wild-Type and Cav1.3^−/− mice were removed under general anesthesia consisting of 0.01 mg/g xylazine (2% Rompun; Bayer AG) and 0.1 mg/g ketamine (Imalgène;Merial) and immersed in a pre-warmed (36 °C) Tyrode solution containing (mM): 140 NaCl, 5.4 KCl, 1 MgCl2, 1.8 CaCl2, 5.5 D-glucose, and 5 Hepes (adjusted to pH 7.4 with NaOH). […] SAN tissue was excised and transferred into a low-Ca^2+ solution containing (mM): 140 NaCl, 5.4 KCl, 0.5 MgCl2, 0.2 CaCl2, 1.2 KH2PO4, 50 taurine, 5.5 D-glucose, 1 mg/mL BSA, and 5 Hepes–NaOH (adjusted to pH 6.9 with NaOH) for 5 min. Then, enzymatic digestion was carried out for 20-25 min at 36 °C in the low-Ca^2+ solution containing LiberaseTH Research Grade (0.15 mg/mL; Roche, Mannheim, Germany) and elastase (0.5 mg/mL; Worthington, Lakewood, NJ, USA). Digestion was stopped by washing the SAN in a “Kraftbrühe” (KB) medium containing (mM) 100 K-glutamate, 10 K-aspartate, 25 KCl, 10 KH2PO4, 2 MgSO4, 20 taurine, 5 creatine, 0.5 EGTA, 20 D-glucose, 5 Hepes, and 1 mg/mL BSA (adjusted to pH 7.2 with KOH). Single SAN cells were then dissociated from the SAN tissue by manual agitation using a flame-forged Pasteur’s pipette. To recover the automaticity of the SAN cells, Ca^2+ was gradually reintroduced in the cell’s storage solution to a final concentration of 1.8 mM. SAN cells were then left to rest for 1 h before recordings.
(§2) For patch-clamp recordings of SAN myocytes, cells were harvested in custom-made chambers with glass bottoms for cell attachment. Cells were then super-fused with Tyrode’s solution warmed at 36 °C before recording. Action potentials and ionic currents were recorded using an Axon multi-clamp patch-clamp 700B amplifier. Voltage-gated L-type Ca^2+ currents (ICaL) were recorded using standard whole cell patch-clamp configuration. For recording ICaL, we used an extracellular recording solution contained (mM): 135 tetraethylammonium chloride (TEA-Cl), 10 4-aminopyridine (4-AP), 1 MgCl2, 0.03 tetrodotoxin (TTX), 1 g/L Glucose, 2 CaCl2, 10 Hepes, (adjusted to pH = 7.2 with TEAOH). […] Pacemaker activity was recorded by the perforated patch-clamp technique using escin (40 µg/ml). For recording cell automaticity glass pipettes were filled with the intracellular solution contained (mM): 80 K-Aspartate, 50 KCl, 1 MgCl2, 5 HEPES, 2 CaCl2, 5 EGTA, 3 ATP-Na+ salt; pH was adjusted to 7.2 with KOH. Escin was dissolved in sterile H2O and added to the intracellular solution right before each experiment.
We used an extracellular recording solution (Tyrode’s based) contained (mM): 140 NaCl, 5.4 KCl, 1 MgCl2, 1.8 CaCl2, 5 HEPES, 5.5 D-Glucose; pH was set to 7.4 with NaOH. AP parameters have been calculated as reported in Baudot et al.[10]. Data were analyzed using pCLAMP9 (Molecular Devices) and GraphPad Prism (GraphPad) software.
(§3) In all experiments of cellular electrophysiology, we employed synthetized analog of Cas, commercially available at Latoxan (ID: L8109). The native peptide was purified from the venom of Dendroaspis polylepis purchased from Latoxan, as previoulsly described. The pure peptide was obtained after gel filtration, cation exchange and C18 reversed phase chromatography. Its measured molecular mass (7036.26 Da average) was in accordance with the mass calculated from sequence data (7036.22 Da).

[2] = system: total ICaL (ICav1.2+ICav1.3) in SAN myocytes from wild-type mice; assay: ICaL, patch clamp, SAN myocytes from wild-type mice; type: cell-based, mouse; conditions: nifedipine 3 µM after Cas 1 µM; holding −55 mV
Experimental: as §1, §2, §3

isolated rat hearts = conditions: cited from earlier work
Text: (§4) A common short peptide between two Prolines at position 42 and 47 (PTAMWP) was predicted as the binding site for Cas and FS2 by Kini and co-workers[49]. […] Similar to Cas, block by L-calchin had no ef ...

[3] = system: calcium channel in rabbit cardiac myocytes; conditions: reduction of calcium channel amplitude; cited from earlier work
Text: as §4

[4] = system: Cav1.2 (ICav1.2) in isolated adult mouse ventricular myocytes; type: cell-based; conditions: L-calchin 5 µM; preliminary; n=7/N=2
[5] = target: recombinant Cav1.2 (α1C) L-type calcium channel, Cav1.2-GFP (UniProt Q13936)
recombinant Cav1.2 (α1C) L-type calcium channel, Cav1.2-GFP, sequence (Q13936 other isoform, or with tags, fused parts or gaps): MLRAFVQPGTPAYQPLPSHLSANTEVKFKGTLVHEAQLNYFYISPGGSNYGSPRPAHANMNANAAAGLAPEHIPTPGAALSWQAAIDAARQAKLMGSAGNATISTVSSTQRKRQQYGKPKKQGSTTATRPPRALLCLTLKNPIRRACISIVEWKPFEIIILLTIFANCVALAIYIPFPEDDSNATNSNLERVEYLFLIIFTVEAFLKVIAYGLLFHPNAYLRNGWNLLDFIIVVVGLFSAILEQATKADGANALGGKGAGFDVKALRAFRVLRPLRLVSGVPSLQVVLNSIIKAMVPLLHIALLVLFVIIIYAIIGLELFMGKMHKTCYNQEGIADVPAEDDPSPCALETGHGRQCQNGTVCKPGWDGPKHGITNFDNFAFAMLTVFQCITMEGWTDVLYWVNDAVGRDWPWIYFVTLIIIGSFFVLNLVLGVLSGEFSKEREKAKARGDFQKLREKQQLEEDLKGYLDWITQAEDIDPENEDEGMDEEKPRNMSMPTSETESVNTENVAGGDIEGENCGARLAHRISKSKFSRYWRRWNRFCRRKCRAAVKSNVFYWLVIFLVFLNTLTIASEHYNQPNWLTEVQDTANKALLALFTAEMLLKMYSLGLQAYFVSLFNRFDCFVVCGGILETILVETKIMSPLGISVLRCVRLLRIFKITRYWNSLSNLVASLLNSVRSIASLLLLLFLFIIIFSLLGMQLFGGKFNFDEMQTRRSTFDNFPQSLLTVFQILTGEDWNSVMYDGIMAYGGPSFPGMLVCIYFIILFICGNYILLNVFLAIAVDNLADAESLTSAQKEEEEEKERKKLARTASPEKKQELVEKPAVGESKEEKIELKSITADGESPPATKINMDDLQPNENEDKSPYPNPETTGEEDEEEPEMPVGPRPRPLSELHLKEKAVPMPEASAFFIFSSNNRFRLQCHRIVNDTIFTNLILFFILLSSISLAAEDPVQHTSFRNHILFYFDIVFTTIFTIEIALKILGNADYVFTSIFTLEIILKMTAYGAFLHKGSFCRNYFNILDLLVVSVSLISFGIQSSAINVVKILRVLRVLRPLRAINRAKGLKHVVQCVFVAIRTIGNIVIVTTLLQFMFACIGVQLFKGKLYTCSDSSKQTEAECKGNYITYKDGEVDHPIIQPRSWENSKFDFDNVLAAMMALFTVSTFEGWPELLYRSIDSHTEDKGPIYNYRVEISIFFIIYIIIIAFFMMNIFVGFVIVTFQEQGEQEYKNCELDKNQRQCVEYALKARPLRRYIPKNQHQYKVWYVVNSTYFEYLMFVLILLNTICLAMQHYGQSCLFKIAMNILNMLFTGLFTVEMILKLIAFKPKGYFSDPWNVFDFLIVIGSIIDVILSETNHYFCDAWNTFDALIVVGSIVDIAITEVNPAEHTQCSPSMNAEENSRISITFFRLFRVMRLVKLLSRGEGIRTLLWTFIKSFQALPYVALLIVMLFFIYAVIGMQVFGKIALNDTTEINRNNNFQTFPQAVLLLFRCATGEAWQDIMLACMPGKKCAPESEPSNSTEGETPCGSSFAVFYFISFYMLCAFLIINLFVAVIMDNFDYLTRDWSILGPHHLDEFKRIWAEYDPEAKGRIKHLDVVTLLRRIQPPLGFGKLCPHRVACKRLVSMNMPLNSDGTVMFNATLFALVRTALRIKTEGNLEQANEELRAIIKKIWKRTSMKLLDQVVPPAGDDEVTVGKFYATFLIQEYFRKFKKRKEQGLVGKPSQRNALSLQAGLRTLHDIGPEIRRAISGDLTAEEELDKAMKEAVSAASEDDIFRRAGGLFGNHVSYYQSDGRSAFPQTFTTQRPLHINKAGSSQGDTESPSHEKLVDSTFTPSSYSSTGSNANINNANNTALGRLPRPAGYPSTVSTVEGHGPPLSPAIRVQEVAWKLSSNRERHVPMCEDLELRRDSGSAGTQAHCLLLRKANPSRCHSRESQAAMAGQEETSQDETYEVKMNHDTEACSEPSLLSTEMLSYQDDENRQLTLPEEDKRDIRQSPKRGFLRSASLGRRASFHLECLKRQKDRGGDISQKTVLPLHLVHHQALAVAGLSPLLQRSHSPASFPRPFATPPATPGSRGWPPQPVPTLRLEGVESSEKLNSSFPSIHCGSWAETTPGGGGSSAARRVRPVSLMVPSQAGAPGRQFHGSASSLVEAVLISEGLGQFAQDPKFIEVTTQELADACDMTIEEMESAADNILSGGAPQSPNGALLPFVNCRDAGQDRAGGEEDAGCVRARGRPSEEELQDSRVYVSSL

[6] = target: native mouse Cav1.2 L-type calcium channel in cardiac myocytes (mouse (endogenous in cardiac myocytes)) (UniProt Q01815)
native mouse Cav1.2 L-type calcium channel in cardiac myocytes (mouse (endogenous in cardiac myocytes)), sequence (Q01815 whole entry): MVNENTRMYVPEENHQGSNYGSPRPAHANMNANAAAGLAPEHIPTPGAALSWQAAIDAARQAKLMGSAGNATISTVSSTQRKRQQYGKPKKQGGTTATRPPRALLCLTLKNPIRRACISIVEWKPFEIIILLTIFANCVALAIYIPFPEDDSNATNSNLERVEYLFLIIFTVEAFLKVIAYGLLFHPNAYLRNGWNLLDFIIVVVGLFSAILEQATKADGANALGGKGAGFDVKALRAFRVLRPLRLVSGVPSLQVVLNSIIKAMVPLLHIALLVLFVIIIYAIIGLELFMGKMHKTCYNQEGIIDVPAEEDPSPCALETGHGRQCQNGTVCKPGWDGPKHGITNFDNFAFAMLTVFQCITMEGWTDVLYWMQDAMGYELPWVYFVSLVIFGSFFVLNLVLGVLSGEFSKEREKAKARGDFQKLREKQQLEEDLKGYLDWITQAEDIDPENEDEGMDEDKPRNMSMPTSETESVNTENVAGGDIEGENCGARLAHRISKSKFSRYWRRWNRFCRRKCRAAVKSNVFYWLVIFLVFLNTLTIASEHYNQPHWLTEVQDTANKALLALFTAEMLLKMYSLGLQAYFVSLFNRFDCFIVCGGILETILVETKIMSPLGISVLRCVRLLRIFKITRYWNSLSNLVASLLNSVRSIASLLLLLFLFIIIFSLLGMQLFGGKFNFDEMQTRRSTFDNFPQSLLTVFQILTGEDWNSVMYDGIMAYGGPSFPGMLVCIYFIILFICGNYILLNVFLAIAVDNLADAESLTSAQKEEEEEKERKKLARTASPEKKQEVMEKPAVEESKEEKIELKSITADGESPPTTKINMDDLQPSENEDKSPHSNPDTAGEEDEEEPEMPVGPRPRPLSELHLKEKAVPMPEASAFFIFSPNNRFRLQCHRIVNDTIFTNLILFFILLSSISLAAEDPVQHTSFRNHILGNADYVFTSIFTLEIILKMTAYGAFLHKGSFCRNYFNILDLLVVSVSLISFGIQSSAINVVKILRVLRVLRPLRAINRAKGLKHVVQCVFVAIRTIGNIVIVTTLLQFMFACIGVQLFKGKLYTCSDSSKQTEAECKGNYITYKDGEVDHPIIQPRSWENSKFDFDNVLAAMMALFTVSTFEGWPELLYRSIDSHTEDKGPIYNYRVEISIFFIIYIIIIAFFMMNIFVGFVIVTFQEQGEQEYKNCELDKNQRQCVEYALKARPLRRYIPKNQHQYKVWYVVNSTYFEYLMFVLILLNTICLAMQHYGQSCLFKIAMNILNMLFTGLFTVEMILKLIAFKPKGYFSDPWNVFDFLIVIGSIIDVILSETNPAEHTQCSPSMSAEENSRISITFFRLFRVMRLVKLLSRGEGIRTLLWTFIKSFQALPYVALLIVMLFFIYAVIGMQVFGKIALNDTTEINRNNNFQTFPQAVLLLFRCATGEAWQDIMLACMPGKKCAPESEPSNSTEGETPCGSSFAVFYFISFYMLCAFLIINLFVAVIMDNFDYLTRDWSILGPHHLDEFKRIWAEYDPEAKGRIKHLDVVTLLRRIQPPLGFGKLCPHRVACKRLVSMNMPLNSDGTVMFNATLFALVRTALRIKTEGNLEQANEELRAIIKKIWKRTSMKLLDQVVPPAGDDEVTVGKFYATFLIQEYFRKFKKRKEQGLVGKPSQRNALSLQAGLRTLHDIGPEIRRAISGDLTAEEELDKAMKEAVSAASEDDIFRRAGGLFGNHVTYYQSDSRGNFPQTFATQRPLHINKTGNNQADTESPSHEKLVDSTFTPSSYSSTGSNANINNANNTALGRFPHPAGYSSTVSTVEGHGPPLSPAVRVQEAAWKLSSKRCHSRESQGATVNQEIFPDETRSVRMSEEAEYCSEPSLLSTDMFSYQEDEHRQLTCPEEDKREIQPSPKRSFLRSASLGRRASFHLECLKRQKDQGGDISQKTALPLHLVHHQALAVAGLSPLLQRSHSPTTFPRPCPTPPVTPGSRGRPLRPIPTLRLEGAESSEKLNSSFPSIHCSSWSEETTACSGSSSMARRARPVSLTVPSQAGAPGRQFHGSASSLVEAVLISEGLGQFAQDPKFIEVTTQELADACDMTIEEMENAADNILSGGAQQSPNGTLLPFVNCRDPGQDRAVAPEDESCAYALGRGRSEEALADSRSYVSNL

[7] = target: native mouse Cav1.2 L-type calcium channel in cardiac myocytes (mouse (endogenous in cardiac myocytes)) (UniProt Q01815); remark: listed apart in the source
[8] = target: native mouse Cav1.2 L-type calcium channel in cardiac myocytes (mouse (endogenous in cardiac myocytes)) (UniProt Q01815); remark: listed apart in the source

For `COc1ccc(CCN(C)CCCC(C#N)(c2ccc(OC)c(OC)c2)C(C)C)cc1OC` (stereo not drawn) [Verapamil], the “selectivity between Cav1.2 and Cav1.3” value (Cav1.2 and Cav1.3) is given as “without significant selectivity”.

In the case of `COc1ccc([C@@H]2Sc3ccccc3N(CCN(C)C)C(=O)[C@@H]2OC(C)=O)cc1` [Diltiazem], the “selectivity between Cav1.2 and Cav1.3” value (Cav1.2 and Cav1.3) is given as “without significant selectivity”.

For `COC(=O)C1=C(C)NC(C)=C(C(=O)OC)C1c1ccccc1[N+](=O)[O-]` [nifedipine, reference compound], the “effect on pacemaker activity of SAN myocytes” value [1] was “robustly slows pacemaker activity” and the “block of residual ICaL (Cav1.3-mediated)” value [2] was “totally blocked”.

For “PTAMWP [L-calchin, short peptide between two Prolines at position 42 and 47 (PTAMWP) of Cas and FS2]”, the “effect on peak systolic pressure” value (isolated rat hearts) is given as “reducing peak systolic pressure”, the “effect on heart rate” value (isolated rat hearts; ex vivo) is given as “had no effect on heart rate” and the IC50 [3] is given as about 5 µM. The “reduction of ICav1.2” value [4] was “≈ 30%”.

B1: calciseptine, synthetized analog (Latoxan L8109) (peptide)
chain: RICYIHKASLPRATKTCVENTCYKMFIRTQREYISERGCGCPTAMWPYQTECCKGDRCNK
With B1 the IC50 of inhibition of I (Cav1.2), whole-cell patch clamp on transfected HEK-293T cells (holding potential −60 mV, test 0 mV), dose-effect relationship [5] was 92 nM, the inhibition of I (Cav1.2) in averaged current-to-voltage relationships, 300 nM Cas, membrane voltages from −20 mV to +30 mV, transfected HEK-293T cells [5] was 60% and the percent inhibition of I (Cav1.2) in transfected HEK-293T cells, one-step protocol (−60 mV to 0 mV), Cas 100 nM to 1 µM (37% at 100 nM, 70% at 300 nM, 80% at 1 µM) [5] was 80%. It also gave a degree of inhibition of ICaL by 300 nM Cas, step to 0 mV from −60 mV, stimulation at 0.2 Hz [6] of 62%, a degree of inhibition of ICaL by 300 nM Cas, step to 0 mV from −60 mV, stimulation at 1 Hz [6] of 63% and a degree of inhibition of ICaL by 300 nM Cas, step to 0 mV from −60 mV, stimulation at 5 Hz [6] of 58%. The percent block of Cav1.2-mediated ICaL in Cav1.3−/− SAN myocytes, 300 nM Cas, step to 0 mV from a holding potential of −40 mV [6] was 68%, the percent block of Cav1.2-mediated ICaL in Cav1.3−/− SAN myocytes, 300 nM Cas, step to 0 mV from a holding potential of −60 mV [6] was 67% and the reduction of total ICaL (I (Cav1.2)+I (Cav1.3)) in wild-type mouse SAN myocytes, voltage clamp, 1 µM Cas [7] was 45%.

In the case of PTAMWP [L-calchin], the reduction of I (Cav1.2) in dissociated mouse ventricular myocytes by synthetic L-calchin (preliminary experiments; concentration not stated) [8] is reported as 30%.
